Laboratory results taken from patent publication US20180051079A1 (MacroGenics, published 2018).

T1: CD32B (UniProt P31994 43-217, limits assumed)
T1 construct: Only the name is printed; also called FcγRIIB
T1 sequence (looked up): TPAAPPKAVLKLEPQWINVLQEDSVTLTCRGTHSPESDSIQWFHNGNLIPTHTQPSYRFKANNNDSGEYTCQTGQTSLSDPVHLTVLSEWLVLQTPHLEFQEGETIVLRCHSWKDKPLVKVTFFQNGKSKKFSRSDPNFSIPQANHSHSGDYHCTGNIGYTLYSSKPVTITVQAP


Experiments:
[1] = target: T1, CD32B; experiment: assay not named in Table 4
[2] = target: T1, CD32B; experiment: assay not named in Table 4; cell stands under CD16A F158 but fits CD32B (0.94/1.07 = 0.88)
[3] = target: T2, CD16A V158 (UniProt P08637 17-208, limits assumed); experiment: assay not named in Table 4
T2 construct: Only the name and allotype are printed; also called FcγRIIIA

[4] = target: T3, CD16A F158 (UniProt P08637 17-208, limits assumed); experiment: assay not named in Table 4
T3 construct: Only the name and allotype are printed; also called FcγRIIIA
T3 sequence (P08637 17-208 limits assumed): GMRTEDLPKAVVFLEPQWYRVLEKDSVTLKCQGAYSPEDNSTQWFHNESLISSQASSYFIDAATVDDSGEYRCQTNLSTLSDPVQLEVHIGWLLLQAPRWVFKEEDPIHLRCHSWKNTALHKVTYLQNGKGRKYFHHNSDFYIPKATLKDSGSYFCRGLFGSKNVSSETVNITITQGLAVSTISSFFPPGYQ

T2 sequence (P08637 17-208 F176V limits assumed): as the sequence (P08637 17-208 limits assumed) above, with F160V counted along it

| binding relative to wild-type Fc [1] | binding relative to wild-type Fc [2] | binding relative to wild-type Fc [3] | binding relative to wild-type Fc [4] | Binder |
| --- | --- | --- | --- | --- |
| 1.07 | 1.07 |  |  | Fc variant D270E G316D P396L R416G (other, UniProt P01857-1 104-330, looked up, domain: Fc; also called D270E P396L G316D R416G) DKTHTCPPCPAPELLGGPSVFLFPPKPKDTLMISRTPEVTCVVVDVSHEEPEVKFNWYVDGVEVHNAKTKPREEQYNSTYRVVSVLTVLHQDWLNDKEYKCKVSNKALPAPIEKTISKAKGQPREPQVYTLPPSRDELTKNQVSLTCLVKGFYPSDIAVEWESNGQPENNYKTTPLVLDSDGSFFLYSKLTVDKSGWQQGNVFSCSVMHEALHNHYTQKSLSLSPGK |
| 0.92 |  | 1.85 | 1.9 | Fc variant R292P V305I P396L (other, UniProt P01857-1 104-330, looked up, domain: Fc; also called Mutant 15) DKTHTCPPCPAPELLGGPSVFLFPPKPKDTLMISRTPEVTCVVVDVSHEDPEVKFNWYVDGVEVHNAKTKPPEEQYNSTYRVVSILTVLHQDWLNGKEYKCKVSNKALPAPIEKTISKAKGQPREPQVYTLPPSRDELTKNQVSLTCLVKGFYPSDIAVEWESNGQPENNYKTTPLVLDSDGSFFLYSKLTVDKSRWQQGNVFSCSVMHEALHNHYTQKSLSLSPGK |
